Measurements taken from a protein production outcome set (Wang et al. 2014).

Assay: label from the status in PepcDB records
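Further: failed if final PepcDB status was selected cloned or expressed and not failed if soluble or beyond.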

Sequence	protein production
MATTPRVDAGGGSSMFAAVPLLALPVIVYNLVALTLTGGFKATDATARMNEALFTIHMTSRTDWAVSLGDLLMAASLVVLFVELLKSTTSRKIAIINHSLSMVLFILCLVEFLLAPAFATSTFFLITLMVLLDVLAGFIVTIVAARRDVDFGDN	failed
MEDIIFGKRSNVFDVNPENTVFVLIAGTSEVSTVPGITSAGATPELTRLTPAIDSEIIGEGKCLSSKDPPMTPEGIPTPAIVTKAILSLTNIRYIIVNGGFYAKPKTPFIETGLKPSNNPAVKTAIEDLDAAIHAGEHIGRLLDGVFENIILAESVPGGTTTAYAVLKAIGINAKTSSSMKEDPFSIKEKIAEMSFRRKLEKSPLGAVKEYGDNMMAVSLGISSSVKRSKIIFGGGTQMATVMYLDRLINGMRDRYISTTGWVYYHRTELFSDLGLSDYLAVSAMDFSGMKHPGLRYYQYGHVREGTGMGAAFLLARLMNFEAEAIYKSVDDFYEQFI	failed
MQSPPHDPASALAIRNHYRQSQSRAARLRLLVDTGQELIQLPPEAMRKCVLQRACAFVAMDHGLLLEWGADNGVQTTARHGSKERLSTLETTADPLAIGPQWLERPGTHLPCVLLLPLRGADEGSFGTLVLANSVAISAPDGEDIESLQLLATLLAAHLENNRLLEALVARDRT	not failed
MYNSRESILSNPVQSAIVSISFFSVVAIIIIAIYPEILSPQRKMERIDDFVVIIATLTFLFIGLSLINSFGTDNMEYTYEALNNFFQGKNPYEMVYGPHTVQPTYTLSGGVASNFIYPPFSFIVYIPIYLLIKAFNLPGYVLNAENVIFAVILGLLLYKIGKEKDDPFALFPVIFLYIITAVSIPPFYGVPIVIASTFLALSYVKKNYLGGISLALAISFSQLSWLAFPFLLIYRIRSDNVGKQFLRSSYFLSFLITLSIINIPFLAWNPVRFIGNIITLNTQLIPVGQIGLTVISYSGLYPMEPWFFTIVFGVVAIFLTYLYYQLFDYLKEIIWLFPLIISWFLWRTLTEYFFMWIPLIFTSLFRTQYKLPTIKLNFKKKIVLPLLIIFVFLASLSVYAHESYVASNPLKIDEVYTLQNTPPYTALIIKVQNTKNEPVNITLVRVSIPNNLNMVWNSTETVIPPNSSALVFAYASNSLEAINSTPFTVQVYSEYYFATYTVNSTQ	failed
SLNEGQEMEEQFALLLETLKNQQMNEFRELFLALHIYEQGQFYQSLDEKDRQHLYNYLSPKELADMFDVIEEDNENMKDYLAEMRPSYAADMLAEMYTDNAVDLLNMLDKSQKAKYLSLLSSEEAGEIKELLHYEDETAGAIMTTEFVSIVANQTVRSAMYVLKNQADMAETIYYVYVVDQENHLVGVISLRDLIVNDDDTLIADILNERVISVHVGDDQEDVAQTIRDYDFLAVPVTDYDDHLLGIVTVDDIIDVIDDEAASDYSGLAGVDVEEVSENPLKAASK	not failed
MNATHEALAIRARPRPASAPSAVLTLAWRAMLKIKHVPFQLFDVTVTPIMFTLLFTFIFGGALAGSPRQYVQYLVPGVLVQTVLFITVYTGVGLNSDIRKGLYDRFRSLPMWQPAPLLGALAGDVFRYSVAGGVILVVGFILGFRPQGGAPGVLAAMALVLVFSFALSWLWIVVGMLVRTPESVMTTSFVFLMPLTFASDIFVGLGTMPGWLQGVVRHNPVTHLANASRDLMHGRPAGADVSWTLLASLVIVAAVAPLAMRLYRKER	failed
VSIPANNSPVRLALIGAGRWGKNYIRTIAGLPGAALVRLASSNPDNLALVPPGCVIESDWRSVVSAPEVEAVIIATPPATHAEITLAAIASGKAVLVEKPLTLDLAEAEAVAAAAKATGVMVWVEHTQLFNPAWEALKADLTSIGPILAVRSEAGNHGPYRPGGVPMLWDWGAHDVSMVLDLMGRDPDSTSASWAARGEKDGGEAGDVTLTLAFSTVEAHIRLCNTMDKCRRLAVFGEAGTLVMDDRATDKLTLHPPQPDGNWPVGQGHALTVTDEMPLTRAVRLFAGAVRQPEPGPSPLELGLRVVRVLGACS	not failed
MNHDLLTNNPLLIVSAIFVFFILLEIACSAFGQPRGQRRDVLIEAVGSSLLLGVTFPLVMWASGALMQLSLPEAKGALAQIPWVLGLLLFLVFDDMTQYWWHRLTHRVPALYALHRAHHSAPYMSIRIVYRNNSFYYLLMPGIWFSGVLIYLGLAPVYYGYLILKMTVIFAAHSSVAWDDKLYRIGFLRPLMWLLERVFSTPSTHSAHHGLSAEDGVTHYKGNFGNLLFLWDVLFGTAKITRRRPVAYGIEHLAPVSWTQELFWPLVRSRKARASAVARVEGALPANPASQG	failed
MFLSDPLPAGGDPVTRLTRYVTRELLPPLLAGTLLFTAILSFGYFFISSQWLSGVPVSLIARWIGYQLPDTLVKVLPMAVVLMTVVAFGRMNTERELVAVQAGGIGLGRVTRPAAVVGLLVTALSVWLSLWVAPRANVETRGLYWDALTGAGLSQLVGKTVDLGQGLTLAMQGYDAGARQMQGVRVEKWDKDNFRQGMVVFADAGKFEGNQLSLTGYQVYRVDYAAAAALSGVADNDPAAFREAVQKVFPLVQVPEDRNAALNLDTGLSRKQTLAQYADAIGADAEGWPELITKLTAPGVPQSERDAARVNLNRKLALPFANLVLVLAALPFALRFGRTLGVSLGVALVIAVAYYLLFSVGLTLAGLLPGLPELGVWLANIVFALGGLWLLRRA	failed
DHKDLIVVAAKHGYALADRNTGQLSYIRKVWDEQEDPEKARRMRFNDGAVDSHGRFWAGSMNDPKVQKPTNEGVLFRLDPDLQLHRMVEGVSIPNGIGWNLRDDTMYFTDSPTAKIFAFDFDASTGTISNRRVHYDVGEPMEPDGFAIDEEGCIWSAIYGGGKIIRISPEGKLIGEISFPTRNITCPTFVGTELFVTTAKDDVNDEQFPESVRYGGRVYRIDVGVRGKPKNEFRFQK	failed
MSHTAEIPMVPGSESPLELKPLKAVDPKAVYHRRAQRLLSLAKDSPLADYFELCRRVVAIQARLAAEADFGQLLAWGKDEAIPLSHLGSEADSYWQGLLQQLLSDLLPQVGEDLARVLRLLMQQSPEQLTSWGASLRQGHMSAVPARFSLFIWAAMGVYWSHWAPMVIKRIDQRKVAQQNLCPICGSHPVASVIVDQPRAGLRYLHCSLCESEWHYIRAHCTSCGQDKGTTLWSFDDTQAQVRIESCDECHGYTKMMFVEKSPLMDVVADDLATLMLDSELNAKGFGATTVNPLLLAHETEQ	failed
MGHHHHHHSHMAGPSNVPAFLTKLWTLVSDPDTDALICWSPSGNSFHVFDQGQFAKEVLPKYFKHNNMASFVRQLNMYGFRKVVHIEQGGLVKPERDDTEFQHPCFLRGQEQLLENIKRKVTSVS	not failed
MQDGFLTVSIIDATNNRPIQNAVVNIYSMSNGSQSSSTLYQNLRSNESGQVTGLVLPAPDVDYSLQPSDVRPYSQYIVEAIADGYETVVIEGTQLLATIEARQGVPMSPRTRSKRSFSRQSELIFDIGEHTLYGTYPPKIPESNLKPLPPPTGFVVLDNPVVPEFIVVHDGLPEDSSAPNYWIPFKEYIKNIASSEIYSTWPEQTIYANVIAIISFTLNRVFTEWYRNKGYNFTITSTTAYDHKFINNRNLFEPINVVVDAIFNTFIKRPPTSRQPLLAQYCDGQKSQCPDQMTQWGSKDLGDQGYDYESILRYFYGDEIVFERAPIVSGVPVSFPGTTLQVGSSGQYVRTIQNQLNAISNSYPAVPKVIEDGIYGTDTENAVKIFQGIFGLPQSGVVDFKTWYEISRVYVATTRIASLNPLILEHHHHHH	not failed
MPIGSAMSRIATSSPGHDALSDRERAVAEKFAAGLTYREIGEALFIAPSTVRTHLASIYDKLGVRNKVALASHINGAIGAGMDGPPRLPGASPVLAIFPIECQTSEERWRRFADGLSSDITIDLARYADLPVIAFHTMKSLGSKPADFAADGKALGATYVVSGQLRADERRVRLSIELADADNGVSLWSERYDRQVEDIFALQDSLTETVINVIAGSYGALATVGRKAIRRKPPASLRAYDCYLLGVEQQDTFSRAGIAEAIRLFSRALELDPTLVRAWTALAYAYSIEGANGFGDDAQVSIENWRTAVENAILLDPMDSVACNCLGDLRGCLGDLEGAERAYRRAFEYGSNHADTLAMLAGSKALVAGDPAEAMPLIERAMHLNPLAPPWYFGMLGRILFTLGRHREAIAALCRSTLNSPNVLLFLALAHTSVGEAAEAARIEARLKTEFADFSVERFITCYPVTNPDAVHAIRHAAQQLARRD	failed
MQEIISFIVETASAWGYLGIIILMTLESCFIPFPSEVVMIPAGYLAHKGELDITLCILSGTLGSVLGALINYYICFFWGKNFVLKWGKYFGINEVKFAKFEEFFNKHGEFSTFTCRLLPGIRQYISMPAGLVKMKLVNFILFTALGSAIWVAILVFLGYYIGQNEELIKTYLTQILIIIIVFVILASLIYISKSKSLLKRLKFYLLRFVWRF	failed
MATVPSNPAFAPTLSTRGRLNGILFVALFAVAVTQLAAMPAIANLGISPLIVGIVAGALYGNALRDGVPASWAAGINFSARGLLRIAVAFFGLRVSLQEIAEVGWSGLIVSVLVVTSTLLIGLWCGMKVFKLDRDTALLTAAGSAICGAAAVLAFESALRSAPHKSAMAVGSVVLFGTLSMFLYPLAINAGWLHLDTMGAGLLLGGTVHEVAQVVGAASNVSPEATHVATIVKMTRVMLLVPVLLVVGLWISRSRKAGQAQGNGRIAMPWFAFGFLALVLVNSMQVLPGSVTQAVNSLDTFALTMAMTALGMETRFSQIRQAGPRALATGAILNLWLVGGGLAITLGVQKLLG	failed
MTSRLRALGGRINNIRTSELPKEKTRSEVTCSIRFLDGLVQTFKVNKQDLGQSLLDMAYGHLGVTEKEYFGLQHGDDPVDSPRWLEASKPLRKQLKGGLPCILHFRVRYFIPDPNTLQQEQTRHLYFLQLKMDVCEGRLTCPLNSAVVLASYAVQSHIGDFNSSIHHPGYLADSQFIPDQNDDFLSKVESLHEQHSGLKQSEAESCYINIARTLDFYGVELHGGRDLHNLDLMIGIASAGIAVYRKYICTSFYPWVNILKISFKRKKFFIHQRQKQAESREHIVAFNMLNYRSCKNLWKSCVEHHSFFQAKKLLPQEKNVLSQYWTLGSRNPKKSVNNQYCKKVIGGMVWNPVMRRSLSVERLETKSLPSRSPPITPNWRSPRLRHEIRKPRHSSADNLANEMTYITETEDVFYTYKGSLSPKDSDSEVSQNHSPHRGSLSENNPAQSCLTQKSSSSVSPCSNAPGSFSPDGVDQQFLEDYHKVTKGGSIEEASQYYCDKNDDGDGYLVLIRITPDKEGRFGFNLKGGVDQKMPLVVSRINPESPADTCMPKLNEGDQIVLINGRDISEHTHDQVVMFIKASRESHSRELALVIRRKAVRSLAEIRSEDELSQLFPEAMFPACPEGGDSLEGSMELLKKGLESGTVLIQFEQLYRKKPGLAVTFAKLPQNLDKNRYKDVLPYDTTRVLLQGNEDYINASYVNMEIPAANLVNKYIATQGPLPHTCAQFWQVVWDQKLSLVVMLTTLTERGRTKCHQYWPDPPDIMDHGIFHIQCQAEDCTIAYVSREMLVTNTETGEEHTVTHLQYVAWPDHGVPDDSSDFLEFVKYVRSLRVGGEPALVHCSAGIGRTGVLVTMETAMCLIERNLPVYPLDIVRKMRDQRAMMVQTSSQYKFVCEAILRVYEEGLVQTLDPS	failed
MKKDVLIFVKGTQEYPINSLENSIEFFTEGTFYKKGESFYVTYKESELTGLEGTTTTFKIQPNHITLIRYGDVTSTLIFEPGKRHISTYITEEGVIMIGVYTKKMKVDLTENGGEVFVEYAIDLDSHMMSENDFLLKIKEAGVKNLEHHHHHH	not failed
